Test results from article PMC12377726 (Proceedings of the National Academy of Sciences of the …, 2025).

B1: G001_gp1_V07_VRC01c_90 (antibody, V domains shown)
VH: QVQLVQSGAEVKKPGASVKVSCKASGYTFTDYYMHWVRQAPGQGLEWMGWINPNSGGTNYAQKFQGRVTMTRDTSISTAYVVLTRLRSDDTAVYYCATVEWGGSGWNYDYWGQGTLVTVSS
VL: EIVMTQSPATLSVSPGERATLSCRASQSVSSNLAWYQQKPGQAPRLLIYGASTRATGIPARFSGSGSGTEFTLTISSLQSEDFAVYYCQQYETFGQGTKVEIK
B2: G001_gp1_V08_VRC01c_123 (antibody, V domains shown)
VH: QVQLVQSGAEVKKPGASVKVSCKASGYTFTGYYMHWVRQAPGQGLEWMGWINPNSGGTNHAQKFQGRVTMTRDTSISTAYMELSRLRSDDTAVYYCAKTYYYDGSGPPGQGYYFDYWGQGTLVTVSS
VL: EIVMTQSPATLSVSPGERATLSCRANQSVSSNLAWYQQKPGQAPRLLIYGASTRATGIPARFSGSGSGTEFTLTISSLQSEDFAVYYCQQYNSFGQGTKLEIK
B3: G001_gp1_V07_VRC01c_94 (antibody, V domains shown)
VH: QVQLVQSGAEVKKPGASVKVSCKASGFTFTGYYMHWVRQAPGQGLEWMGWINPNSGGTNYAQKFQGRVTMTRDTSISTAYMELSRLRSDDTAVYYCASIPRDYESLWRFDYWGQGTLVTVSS
VL: EIVMTQSPATLSVSPGERATLSCRASQSVSSNLAWYQQKPGQAPRLLIYGASTRATGIPARFSGSGSGTEFTLTISSLQSEDFAVYYCQQYNTFGQGTRLEIK
B4: G001_gp1_V08_VRC01c_119 (antibody, V domains shown)
VH: QVQLVQSGADVKKPGASVKVSCKASGYTFSGYYMHWVRQAPGQGLEWMGWINPNSGGTNYAQNFQGRVTMTRDTSISTAYMELSSLTSDDTAVYYCASPRYSNGNRCYRYWGQGTLVTVSS
VL: DIQMTQSPSSLSASVGDRVTITCQASQDISNYLNWYQHHPGRAPKLLIYDASNLETGVPSRFSGSGSGTDFTFTISSLQPEDVATYYCQQYDYFGPGTKVDIK
B5: G001_LD_V07A_VRC01c_46 (antibody, V domains shown)
VH: QVQLVQSGAEVKKPGASVKVSCKASGYTFTDYYMHWVRQAPGQGLEWMGWINPNSGGTNYAQKFQGWVTMTRDTSISTAYMELTRLRSDDTAVYYCAVRKNGGDCSFCFGYWGQGTLVTVSS
VL: QSVLTQPPSVSGAPGQRVTISCTGSSSNIGAGYDVHWYQQLPGTAPKLLIYGNNNRPSGVPDRFSGSKSGTSASLAITGLQAEDEADYYCQSYEMFGGGTKLTVL
B6: G001_gp1_V07_VRC01c_2021-0039 (antibody, V domains shown)
VH: QVQLVQSGAEVKKPGASVRVSCKASGNTFTDYYMHWVRQAPGQGLEWMGWINPNSGGTNYAQKFQGRVTMTRDTSISTAYMELSRLRSDDTAVYYCASPGAAGQPWGFGYWGQGTLVTVSS
VL: DIQMTQSPSSLSASVGDRVTITCQASQDISNYLNWYQQKPGKAPKLLIYDASHLETGVPSRFSGSESGTECTLTISSLQPEDIATYYCQQYEFFGGGTKVEIK
B7: G001_gp1_V08_VRC01c_117 (antibody, V domains shown)
VH: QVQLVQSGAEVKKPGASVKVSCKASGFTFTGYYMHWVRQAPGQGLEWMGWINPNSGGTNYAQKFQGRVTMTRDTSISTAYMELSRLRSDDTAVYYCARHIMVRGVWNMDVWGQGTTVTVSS
VL: DIQMTQSPSSLSASVGDRVTITCQASQDISNYLNWYQQKPGKAPKLLIYDASNLEKGVPSRFSGGGSGTDFTFTISSLQPEDIATYYCQQYEFFGPGTKVDIK
B8: G001_gp1_V07_VRC01c_2021-0048 (antibody, V domains shown)
VH: RVQLVQSGAEVKKPGASVKVSCKASGYTFTGYYMHWVRQAPGQGLEWMGWINPNSGGTNYAQKFQGRVTMTRATSISTAYMELSRLRFDDTAVYYCARGGSRGWSLDYWGQGTLVTVSS
VL: DIQMTQSPSSLSASVGDRVTITCQASQDISNYLNWYQQKLGKAPKLLIYDASNLETGVPSRFSGSGSGTDFSLTISSLQPEDIATYYCQQYETFGQGTKLEIK
B9: G001_LD_V07A_VRC01c_40 (antibody, V domains shown)
VH: not shown
VL: DIQMTQSPSSLSASVGDRVTITCQASQDISNYLNWYQQKPGKAPKLLIYDASNLETGVPSRFSGSASGTESSFTISSLQPEDIATYYCQQYETFGPGTKVDIK
B10: G001_gp1_V08_VRC01c_126 (antibody, V domains shown)
VH: QVQLVQSGAEVKKPGASVKVSCKASGYTFTGYYMHWVRQAPGQGLEWMGWINPNSGGTNYAQKFQDWVTMTRDTSISTAYMELNRLRSDDAAIYYCARADIVATIWALDYWGQGTLVTVSS
VL: DIQMTQSPSSLSASVGDRVTITCQASQDISTYLNWYQQKPGKAPKLLIYDASNLETGVPSRFSGSGSGTDFTFTISSLQPEDSATYYCQQYGTFGQGTKVEIK
B11: G001_gp1_V07_VRC01c_2021-0044 (antibody, V domains shown)
VH: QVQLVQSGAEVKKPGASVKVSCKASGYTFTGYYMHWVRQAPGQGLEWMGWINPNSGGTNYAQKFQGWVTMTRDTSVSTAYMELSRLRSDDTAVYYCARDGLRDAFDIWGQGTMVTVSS
VL: QSALTQPASVSGPPGQSITISCTGTSSDFGGHNSVSWYQQHPGKAPKLMIYDVSNRPSGVSNRFSGSKSGNTASLTISGLQAEDEADYYCSSYKVFGGGTKLTVL
B12: G001_gp1_V07_VRC01c_97 (antibody, V domains shown)
VH: QVQLVQSGAEVKKPGASVKVSCKASGYSFTDYYMHWVRQAPGQGLEWMGWINPNSGGTNYAQKFQGRVTMTRDTSISTAYMELSRLRSDDTAVYYCASDVEMANRGGWKFDYWGQGTLVTVSS
VL: QSALTQPASVSGSPGQSITISCTGTSSDVGSYNLVSWYQQHPGTAPKLMIYEVSKRPSGVSNRFSGSKSGNTASLTISGLQAEDEADYYCCSYEVFGGGTKLTVL
B13: G001_gp1_V08_VRC01c_115 (antibody, V domains shown)
VH: QVQLVQSGAEVKKPGASVKVFCKTSGYIFTDYYMHWVRQAPGQGLEWMGWINPNSGGTNYAQKFQGRVTMTRDTSISTAYMELSRLRSDDTAVYYCARAYYGDYGDYWGQGTLVTVSS
VL: DIVMTQSPDSLAVSLGERATINCKSSQSVLYSSDNKNYLSWYQQKPRQPPKLLIYWASTRESGVPDRFTGSGSGTDFTLTISSLQAEDVAVYYCQQYWTFGQGTKVEIK
B14: G001_gp1_V07_VRC01c_91 (antibody, V domains shown)
VH: QVQLVQSGAEVKKPGASVKVSCKASGYTFTDYYIHWVRQAPGQGLEWMGWISPNSGGTNFAQKFQGSVTMTRDTSISTAYMELSRLRSDDTAVYFCARDGGWKRGWGFQFWGQGTLVTVSS
VL: QSALTQPPSASGSPGQSVTISCTGTSSDVGDYKYVSWYQQHPGKAPKLVIYEVSKRPSGVPDRFSGSKSGNTASLTVSGLQAEDEADYYCSSYEVFGGGTKLTVL
B15: G001_LD_V07A_VRC01c_41 (antibody, V domains shown)
VH: QVQLVQSGAEVKKPGASVRVSCRASGYTFSDYYIHWVRQAPGQGLEWMGWINPTSGGTNYAQRFQGRVTMTRDTSISTAYMELSRLRSDDTAVYYCARNLGNSGWYFAWGQGTLVTVSS
VL: DIQMTQSPSTLSASVGDRVTITCRASQSISSWLAWYQQKPGKAPKLLIYKASSLESGVPSRFSGSGSGTEFTLTISNLQPDDFGTYYCQQYETFGQGTKVEIK
B16: G001_gp1_V08_VRC01c_122 (antibody, V domains shown)
VH: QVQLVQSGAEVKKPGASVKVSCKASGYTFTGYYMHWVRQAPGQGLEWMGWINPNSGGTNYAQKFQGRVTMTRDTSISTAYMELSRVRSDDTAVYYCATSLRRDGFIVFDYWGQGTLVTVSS
VL: DIQMTQSPSTLSASVGDRVTITCRASQSISSWLAWYQQKPGKAPKLLIYKASSLESGVPSRFSGSGSGTEFTLTISSLQPDDFATYYCQQYETFGQGTKVEIK
B17: G001_gp1_V08_VRC01c_114 (antibody, V domains shown)
VH: QVQLVQSGAEVKKPGASGKVSCKASGYTFTDYYMYWVRQAPGQGLEWIGWINPTSGGSNYAQKFQGRVTMTRDTSISTAYMELSRLRSDDTAVYYCARRSEDRKAFDIWGQGTMVTVSS
VL: DIQMTQSPSTLSASVGDRVTITCRASQSISSWLAWYQQKPGKAPKLLIYKASSLESGVPSKFSGSGSGTEFTLTISSLQPDDFATYYCQQYDTFGQGTKLEIK
B18: G001_gp1_V08_VRC01c_121 (antibody, V domains shown)
VH: QVQLVQSGAEVRKPGASVKVSCKASGYTFTDYYMHWVRQAPGQGLECMGWINPDSGGTNYAQKFQGRVTMTRDTSISTVYMELSRLRSDDTAVYYCARPALYDSSGYNWAYWGQGSLVTVSS
VL: DIQMTQSPSTLSASVGDRVTITCRASQSINRWLAWYQQKPGKAPKLLIYKTSSLENGVPSRFNGSGSGTEFTLTISSLQPDDFATYYCQHYETFGQGTKVEIK
B19: G001_gp1_V08_VRC01c_120 (antibody, V domains shown)
VH: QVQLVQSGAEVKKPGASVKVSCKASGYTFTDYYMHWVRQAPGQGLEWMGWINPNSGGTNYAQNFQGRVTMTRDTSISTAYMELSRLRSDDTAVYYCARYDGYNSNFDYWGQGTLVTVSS
VL: DIQMTQSPSTLSASVGDRVTITCRASQSISNWLAWFQQKPGKAPKLLIYKASNLESGVPSRFSGSGSGTEFTLTISSLQPDDFATYYCQKYNTFGQGTKLEIK
B20: G001_gp1_V08_VRC01c_116 (antibody, V domains shown)
VH: QVQLVQSGAEVKKPGASGKVSCKASGYTFTDYYMYWVRQAPGQGLEWMGWINPNSGGSNYAQKFQGRVTMTRDTSISTAYMELSRLRSDDTAVYYCARRSEDRKAFDIWGQGTMVTVSS
VL: DIQMTQSPSTLSASVGDRVTITCRASQSISSWLAWYQQKPGKAPKLLIYKASSLESGVPSKFSGSGSGTEFTLTISSLQPDDFATYYCQQYDTFGQGTKLQIK
B21: G001_gp1_V07_VRC01c_2021-0040 (antibody, V domains shown)
VH: QVQLVQSGAEVKKPGASVKVSCKASGYTFTGYYMHWVRQAPGQGLEWMGWINPNSGGSNYAQKFQGRVTMTRDRSITTAYMELSRLRSDDTAVYYCARDHTGTAGWYFDLWGRGTLVTVSS
VL: EIVLTQSPGTLSLSPGERATLSCRASQSVSSSYLAWYHQKPGQAPRLLIYGASSRATGIPDRFSGSGSGTDFTLTISRLEPEDFAVYYCQQYETFGQGTKVEIT
B22: G001_LD_V07A_VRC01c_65 (antibody, V domains shown)
VH: QVQLVQSGAEVKKPGASVKVSCKASGYTFTGYYMHWVRQAPGQGLEWMGWINPNSGGTNYAQKFQGYVTMTRDTSISTAFMELSRLRSDDAAVYYCATSIAAPDSYWYFDLWGRGTLVTVSS
VL: EIVLTQSPGTLSLSPGERATLSCRASQSVTSSYLAWYQQKPGQAPRLLIYGASSRATGIPDRFSGSGSGTDFTLTISRLEPEDFAVYYCQQYEFFGQGTKLEIK
B23: G001_gp1_V08_VRC01c_128 (antibody, V domains shown)
VH: QVQLVQSGAEVKKPGASVKVSCKASGYTFIDYYMHWVRQAPGQGLEWMGWINPNSGGTNYAQQFQGWVTMTRDTSISTAYMELSRLRSDDTAVYYCATSIVAAGSYWYFDLWGRGTLVTVSS
VL: EIVLTQSPGTLSLSPGERATLSCRASQSVTSSYLAWYQKKPGQAPRLLIYGASSRATGIPDRFSGSGSGTDFTLTISRLEPEDFAVYYCQQYEFFGQGTKLEIK
B24: G001_gp1_V07_VRC01c_99 (antibody, V domains shown)
VH: QVQLVQSGAEVKKPGASVKVSCKASGYTFTDYYMHWVRQAPGQGLEWMGWINPNSGGTNYAQKFQGRVTMTRDTSISTAYMDLSRLRSDDTAMYYCATSPHEYSTSWEFDSWGQGTLVTVSS
VL: DIVLTQSPGTLSLSPGERATLSCRASQSVSSSNLAWYQQKPGQAPRLLIYGAFKRATGIPDRFSGSGSGTDFTLTISRLEPEDFAVYYCQQYETFGQGTKVEIK
B25: G001_gp1_V07_VRC01c_92 (antibody, V domains shown)
VH: QVQLVQSGAEVRKPGASVKVSCKASGYTFTDSYMHWVRQAPGQGLEWMGWINPNSGGTNYAQKFQGRVTMTRDTSITTAYMELSRLRFDDTAIYYCATVATIAAPWAFDYWGQGALVTVSS
VL: DIQMTQSPSSLSASVGDRVSITCQASQDINNYLNWYQQKPGKAPKLLIYDVSNLQTGVPSRFSGRGSGTDFTFTISSLQPEDSATYYCQQYERFGQGTKLEIK

Biological target: eOD-GT8 (engineered outer domain germline-targeting version 8), monomer (HIV-1 gp120 engineered outer domain, …)

Binder	binding result
B1	binds
B2	binds
B3	binds
B4	binds
B5	binds
B6	binds
B7	binds
B8	binds
B9	binds
B10	binds
B11	binds
B12	binds
B13	binds
B14	binds
B15	binds
B16	binds
B17	binds
B18	binds
B19	binds
B20	binds
B21	binds
B22	binds
B23	binds
B24	binds
B25	binds
